The source of these data is patent US20240376185A1 (SMIVET B V, published 2024).

Test [1] has as its target T1, horse serum albumin (horse, UniProt P35747 25-607).
T1 construct: mature; also called horse Alb; Equine albumin
In words: BLI, Octet Red96. On the technique in general: In BLI a coated tip is dipped into the sample, and binding shifts an interference pattern.

Test [2] addresses T2, Swine albumin (swine, UniProt P08835 25-607).
T2 construct: also called Porcine Alb
Nature of the test: BLI (Octet Red96), SDA on Ni-NTA sensor, albumin as analyte.

Test [3] concerns the target T3, Horse albumin (horse, UniProt P35747 25-607).
T3 construct: also called Equine albumin; Equine Alb
The test is described as above.

Test [4] deals with T4, Dog albumin (dog, UniProt P49822 25-608).
T4 construct: also called Canine albumin; Canine Alb
T4 sequence (P49822 25-608 limits assumed): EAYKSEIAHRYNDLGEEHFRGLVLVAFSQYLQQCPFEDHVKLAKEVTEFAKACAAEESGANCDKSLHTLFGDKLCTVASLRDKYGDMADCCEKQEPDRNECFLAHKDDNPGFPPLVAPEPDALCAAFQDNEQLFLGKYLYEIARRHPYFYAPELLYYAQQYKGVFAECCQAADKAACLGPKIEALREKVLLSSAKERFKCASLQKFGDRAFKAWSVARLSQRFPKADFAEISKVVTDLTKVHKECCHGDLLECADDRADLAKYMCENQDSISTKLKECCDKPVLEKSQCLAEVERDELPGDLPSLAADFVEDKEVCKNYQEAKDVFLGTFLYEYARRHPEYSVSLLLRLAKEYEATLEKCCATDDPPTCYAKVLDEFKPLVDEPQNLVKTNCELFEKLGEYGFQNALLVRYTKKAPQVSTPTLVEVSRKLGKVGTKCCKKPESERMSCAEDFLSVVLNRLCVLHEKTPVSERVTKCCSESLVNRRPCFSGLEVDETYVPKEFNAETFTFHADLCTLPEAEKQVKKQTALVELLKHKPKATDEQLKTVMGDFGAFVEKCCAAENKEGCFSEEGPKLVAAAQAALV
The description is as above.

Test [5] addresses T5, Cat albumin (cat, UniProt P49064 25-608).
T5 construct: also called Feline albumin; Feline Alb
The test is described as above.

Test [6] deals with mouse albumin (mouse, UniProt P07724 25-608). In words: ELISA on coated albumin.
Chain of mouse albumin (P07724 25-608 limits assumed): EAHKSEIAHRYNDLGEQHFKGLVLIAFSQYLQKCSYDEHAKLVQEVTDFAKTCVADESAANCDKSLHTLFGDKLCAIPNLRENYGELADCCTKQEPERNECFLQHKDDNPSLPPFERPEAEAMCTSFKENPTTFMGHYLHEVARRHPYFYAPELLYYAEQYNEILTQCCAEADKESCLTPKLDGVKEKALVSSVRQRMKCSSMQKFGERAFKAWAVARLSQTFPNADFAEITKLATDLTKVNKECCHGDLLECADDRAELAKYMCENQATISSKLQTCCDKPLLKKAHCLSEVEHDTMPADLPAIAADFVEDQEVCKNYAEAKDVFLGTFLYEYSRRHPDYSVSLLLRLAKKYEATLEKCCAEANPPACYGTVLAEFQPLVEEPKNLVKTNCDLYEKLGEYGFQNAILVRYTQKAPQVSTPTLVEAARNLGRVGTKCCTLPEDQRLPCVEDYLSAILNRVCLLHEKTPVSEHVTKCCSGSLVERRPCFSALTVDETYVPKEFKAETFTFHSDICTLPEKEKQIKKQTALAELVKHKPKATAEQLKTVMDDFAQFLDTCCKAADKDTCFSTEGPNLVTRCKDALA
For test [7], the target named is T6, swine albumin (swine, UniProt P08835 25-607).
T6 construct: also called Porcine albumin
T6 sequence (P08835 25-607 limits assumed): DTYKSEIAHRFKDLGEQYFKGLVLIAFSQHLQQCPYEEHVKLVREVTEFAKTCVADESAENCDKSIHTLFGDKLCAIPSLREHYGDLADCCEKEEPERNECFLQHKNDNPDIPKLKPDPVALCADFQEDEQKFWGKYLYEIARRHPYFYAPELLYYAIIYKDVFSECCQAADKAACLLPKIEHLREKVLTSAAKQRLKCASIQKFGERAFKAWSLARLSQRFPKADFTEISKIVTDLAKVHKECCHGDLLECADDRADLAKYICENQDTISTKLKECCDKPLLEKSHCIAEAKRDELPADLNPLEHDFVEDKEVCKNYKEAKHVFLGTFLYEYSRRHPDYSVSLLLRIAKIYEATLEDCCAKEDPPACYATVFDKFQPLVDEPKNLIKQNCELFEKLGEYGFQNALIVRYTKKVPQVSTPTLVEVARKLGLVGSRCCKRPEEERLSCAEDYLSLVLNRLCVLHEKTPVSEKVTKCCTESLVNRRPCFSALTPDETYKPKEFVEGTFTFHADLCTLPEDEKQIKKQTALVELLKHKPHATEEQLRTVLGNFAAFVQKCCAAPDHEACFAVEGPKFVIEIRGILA
Nature of the test: ELISA on coated albumin. In general terms: ELISA stands for enzyme-linked immunosorbent assay.

Test [8] concerns the target T7, human albumin (human, UniProt P02768 25-609). In words: ELISA on coated albumin.
In test [9] the target is T8, sheep albumin (sheep, UniProt P14639 25-607). Nature of the test: ELISA on coated albumin.
T8 sequence (P14639 25-607 limits assumed): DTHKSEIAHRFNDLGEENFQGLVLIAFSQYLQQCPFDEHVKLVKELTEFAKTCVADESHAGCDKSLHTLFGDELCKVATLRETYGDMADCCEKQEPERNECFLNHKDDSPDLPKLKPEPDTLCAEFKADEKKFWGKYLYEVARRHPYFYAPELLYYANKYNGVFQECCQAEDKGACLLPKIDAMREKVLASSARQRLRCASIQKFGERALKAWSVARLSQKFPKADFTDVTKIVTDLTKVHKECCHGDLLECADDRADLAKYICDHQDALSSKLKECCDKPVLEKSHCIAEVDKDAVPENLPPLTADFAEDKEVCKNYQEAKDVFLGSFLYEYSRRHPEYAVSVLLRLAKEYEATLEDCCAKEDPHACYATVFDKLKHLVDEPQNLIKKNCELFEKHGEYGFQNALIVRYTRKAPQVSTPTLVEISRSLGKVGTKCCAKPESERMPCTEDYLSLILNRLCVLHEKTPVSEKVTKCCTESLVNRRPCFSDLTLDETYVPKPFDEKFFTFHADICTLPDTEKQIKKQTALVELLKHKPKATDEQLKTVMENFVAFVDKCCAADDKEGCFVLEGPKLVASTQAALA
The target in test [10] is T9, bovine albumin (bovine, UniProt P02769 25-607). In words: ELISA on coated albumin.
T9 sequence (P02769 25-607 limits assumed): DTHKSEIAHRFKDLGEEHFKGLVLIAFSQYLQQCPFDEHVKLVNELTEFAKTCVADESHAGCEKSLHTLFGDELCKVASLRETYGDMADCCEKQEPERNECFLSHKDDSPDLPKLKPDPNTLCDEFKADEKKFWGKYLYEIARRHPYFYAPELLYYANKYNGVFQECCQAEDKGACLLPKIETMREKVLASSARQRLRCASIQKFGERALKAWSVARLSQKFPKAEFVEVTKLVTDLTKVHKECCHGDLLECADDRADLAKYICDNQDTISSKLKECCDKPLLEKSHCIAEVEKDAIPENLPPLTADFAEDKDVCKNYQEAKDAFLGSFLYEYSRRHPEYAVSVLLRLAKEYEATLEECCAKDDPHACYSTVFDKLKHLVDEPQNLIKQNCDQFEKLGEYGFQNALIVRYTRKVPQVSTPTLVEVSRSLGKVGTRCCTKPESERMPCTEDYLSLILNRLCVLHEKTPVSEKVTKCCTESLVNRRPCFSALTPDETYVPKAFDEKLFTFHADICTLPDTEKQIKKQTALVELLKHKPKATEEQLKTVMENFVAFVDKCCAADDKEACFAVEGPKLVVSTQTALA
The target in test [11] is T10, chicken ovalbumin (chicken, UniProt P01012 2-386).
T10 construct: also called Chicken Alb
T10 sequence (looked up): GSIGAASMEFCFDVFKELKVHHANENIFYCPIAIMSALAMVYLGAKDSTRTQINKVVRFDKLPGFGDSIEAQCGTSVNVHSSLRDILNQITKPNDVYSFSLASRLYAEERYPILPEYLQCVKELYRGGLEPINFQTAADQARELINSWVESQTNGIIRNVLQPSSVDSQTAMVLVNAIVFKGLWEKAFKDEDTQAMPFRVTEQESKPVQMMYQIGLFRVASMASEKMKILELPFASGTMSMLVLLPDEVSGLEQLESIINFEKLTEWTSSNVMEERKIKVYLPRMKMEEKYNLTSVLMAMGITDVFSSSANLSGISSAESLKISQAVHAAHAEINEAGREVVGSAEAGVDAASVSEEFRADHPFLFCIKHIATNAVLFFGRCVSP
In words: ELISA on coated albumin.

For test [12], the target named is T11, horse albumin (horse, UniProt P35747 25-607).
T11 construct: also called Equine albumin
T11 sequence (P35747 25-607 limits assumed): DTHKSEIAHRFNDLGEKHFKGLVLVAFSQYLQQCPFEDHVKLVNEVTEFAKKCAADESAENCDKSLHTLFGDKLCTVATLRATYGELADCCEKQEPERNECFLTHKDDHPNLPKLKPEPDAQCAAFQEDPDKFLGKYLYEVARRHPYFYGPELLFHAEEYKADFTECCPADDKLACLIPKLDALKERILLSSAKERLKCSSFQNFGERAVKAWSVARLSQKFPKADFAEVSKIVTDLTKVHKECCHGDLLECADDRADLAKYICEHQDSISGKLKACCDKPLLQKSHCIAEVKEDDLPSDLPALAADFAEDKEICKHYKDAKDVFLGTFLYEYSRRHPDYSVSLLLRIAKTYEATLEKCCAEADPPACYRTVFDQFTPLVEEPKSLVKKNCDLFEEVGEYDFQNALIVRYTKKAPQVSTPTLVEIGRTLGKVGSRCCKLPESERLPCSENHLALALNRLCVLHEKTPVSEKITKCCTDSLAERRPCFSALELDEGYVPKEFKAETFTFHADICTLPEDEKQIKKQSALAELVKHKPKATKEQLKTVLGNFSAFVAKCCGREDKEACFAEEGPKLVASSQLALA
Nature of the test: ELISA on coated albumin.

The target of test [13] is T12, dog albumin (dog, UniProt P49822 25-608).
T12 construct: also called Canine albumin
T12 sequence (P49822 25-608 limits assumed): as the sequence (P49822 25-608 limits assumed) above
Nature of the test: ELISA on coated albumin.

The target in test [14] is T13, cat albumin (cat, UniProt P49064 25-608).
T13 construct: also called Feline albumin
T13 sequence (P49064 25-608 limits assumed): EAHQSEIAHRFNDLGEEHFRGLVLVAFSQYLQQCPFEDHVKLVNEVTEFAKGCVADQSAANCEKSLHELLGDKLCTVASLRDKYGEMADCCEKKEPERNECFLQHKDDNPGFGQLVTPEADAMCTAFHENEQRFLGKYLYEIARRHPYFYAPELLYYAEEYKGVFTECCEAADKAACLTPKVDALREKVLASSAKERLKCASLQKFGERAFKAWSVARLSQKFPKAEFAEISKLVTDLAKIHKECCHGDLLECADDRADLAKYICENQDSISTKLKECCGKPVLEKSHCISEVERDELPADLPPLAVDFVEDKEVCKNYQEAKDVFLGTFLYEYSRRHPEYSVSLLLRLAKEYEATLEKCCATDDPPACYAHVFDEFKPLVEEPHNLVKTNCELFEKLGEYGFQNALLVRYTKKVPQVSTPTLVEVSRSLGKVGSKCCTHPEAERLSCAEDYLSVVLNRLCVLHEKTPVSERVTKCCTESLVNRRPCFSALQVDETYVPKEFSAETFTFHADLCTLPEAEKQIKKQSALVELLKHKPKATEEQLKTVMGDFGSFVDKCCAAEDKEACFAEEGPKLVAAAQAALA
Nature of the test: ELISA on cat albumin captured from serum.

The target of test [15] is T7, human albumin. Nature of the test: ELISA; A450 below 0.2 at highest SDA concentration.
The target in test [16] is T8, sheep albumin. Nature of the test: ELISA; A450 below 0.2 at highest SDA concentration.
Test [17] concerns the target T9, bovine albumin. In words: ELISA; A450 below 0.2 at highest SDA concentration.
Test [18] deals with T10, chicken ovalbumin. Nature of the test: ELISA; A450 below 0.2 at highest SDA concentration.

The Kd is a measure of binding affinity in units of concentration. Higher therefore signals lower affinity. As usually defined, the koff is a measure of how fast the partners let go of each other. The low end stands for a long-lived complex, the high end for a short-lived complex. The kon is a measure of how fast the partners come together.

T5 sequence (P49064 25-608 limits assumed): as above
T2 sequence (P08835 25-607 limits assumed): as the sequence (P08835 25-607 limits assumed) above
T3 sequence (P35747 25-607 limits assumed): as the sequence (P35747 25-607 limits assumed) above
T1 sequence (P35747 25-607): as the sequence (P35747 25-607 limits assumed) above

B1: SVT16-L123Q-GS2-SVG13M4-H6 (bispecific antibody)
chain: QVQLQESGGGSVQAGDSLRLSCAASGRTISNYAMGWFRQAPGKQREFVAAISRSDNTYYTDSVKGRFTISRDNAKNTLYLQMNSLKPEETAVYYCAADPNLMYESKWKYRALEAWGQGTQVTVSSGGGGSGGGSEVQLVESGGGLVQPGGSLRLSCEASGFTFDDYGMSWVRQAPGKGLEWVSSLTPNGGSTYYADSVKGRFTISRDNAKNTLYLQMNSLKPEDTALYYCAKNSYYGAMDYWGQGTQVTVSSHHHHHH
In the case of B1, in test [1], the binding result is given as “no binding (tested: 100 nM)”.

B2: SVG13L (VHH)
VHH: QVQLQESGGGLVQPGGSLRLSCEASGFTFDDYGMSWVRQAPGKGLEWVSSLTPNGGSTYYADSVKGRFTISRDNAKNTLYLQMNSLKPEDTALYYCAKNSYYGAMDYWGKGTLVTVSS
notes: yeast-produced
As to B2, the binding result in test [1] is “no binding (tested: 100 nM)”.

B3: SVA12L (VHH)
VHH: QVQLQESGGGLVQAGGSLRLSCAASGRTFSYYPMAWFRQAPGQEREFVAAIIGADTTYYADSLKGRFTISRDNAKNMVYLQMNSLKPEDTAVYYCAARNTYWSDVYYREGQYTNWGQGTQVTVSS
Take B3: the Kd in test [2] stood at 159 nM; in [3], 10.7 nM; in test [4], 271 nM; in test [5] it was 19 nM. Moreover, the koff in test [2] came out at 0.0238 s⁻¹; in test [3] it was 0.00109 s⁻¹; in test [4], 0.0125 s⁻¹; in [5], 0.000737 s⁻¹. In addition, the kon in test [2] stood at 150000 M⁻¹ s⁻¹; in test [3], 101000 M⁻¹ s⁻¹; in test [4], 45900 M⁻¹ s⁻¹; in test [5], 38800 M⁻¹ s⁻¹.

B4: SVA06L (VHH)
VHH: QVQLQESGGRLVQAEDSLRLSCAASGRTFVSYDMGWFRQAPGKEREFVAAINWRGYTTDYVDSVKGRFFISRDIAKSTVYLQMNNLKPEDTAVYYCAARQMSGSSRYSPPGRVGYDFWGQGTQVTVSS
Regarding B4, the “SDA Effective Concentration resulting in A450 nm = 0.2” value was found to be 180 ng/mL in [6], 344 ng/mL in [7], 235 ng/mL in test [12] and 51 ng/mL in test [13]. The “maximal absorbance value at 450 nm” value in test [6] was 0.36 A450; in [7], 0.288 A450; in test [8], 0.05 A450; in test [9] it was 0.052 A450; in [10] it was 0.052 A450; in [11], 0.054 A450. Moreover, the entries for the “maximal absorbance value at 450 nm” value in test [12], in [13] and in test [14] were 0.483 A450, 0.921 A450 and 0.158 A450, respectively. The binding result in test [15], in test [16], in test [17] and in test [18] was “no binding (tested: 1000 ng/ml)” throughout.
